# B1: TPR t1 (parent)
# chain: GACCAAUCUGCCCUCAGAGCUCGAGAACAUCUUCGGAUGCAGAGGAGGCAGGCUUCGGUGGCGCGAUAGCGCCAACGUCCUCAACCUCCAAUGCAUCCCACCACAUGAUGAUGCCUGAAGAGCCUUGGUUUUUUG
# Variants of: B1
# Experiment: polymerase ribozyme fitness, log enrichment relative to wild type (log ratio); higher = more active; in vitro selection for triplet polymerase activity
# Procedure, shortened: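 In triplicate, a single round of in vitro selection was run on each mutant library, PCR-built and transcribed, covering one subunit of a heterodimeric triplet polymerase ribozyme. Frozen incubation at −7 °C followed annealing with a biotinylated primer, partner subunit and triplets, and extended constructs were then gel-excised, streptavidin-captured and taken through RT-PCR. Fitness is the logarithm of genotype enrichment over wild-type enrichment, from inverse-variance-weighted replicate averages of Illumina-sequenced inputs and outputs. […] only genotypes with ≥10 input reads and ≥1 read per output were kept.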
row,Variant,polymerase ribozyme fitness (log ratio)
1,A41U G135U,-2.4
2,A41U U81A A121C,-0.475
3,A41U G51A U87G U112A A119G,-4.72
4,A41U U109C C114U G120U,-4.6
5,G42A C56U C80U,-3.08
6,G42A C88A A121U,0.406
7,G42A G110A,-2.55
8,G42C G71U U96G,-3.01
9,G42A C62G G69C C99A A111G C115U U129C,-6.83
10,A41U A100C U106A U132C,-2.89
11,G42C C114A,-2.26
12,G42U A46U U96G,-2.26
13,G42C G127A,-2.97
14,G42A C70A C89A C124U,-4
15,G42C C82U,-1.49
16,G42A C56A U96G,-2.79
17,G42C C73G C79U A95G U129C,-3.37
18,G42C G57A C64A C85A G113U,-7.14
19,A41U U129A,-2.58
20,A41U C104U C124U,0.576
21,G42C C49U C79A C102G G120A,-7.51
22,G42A C53U C64U U106A A119G,-1.87
23,G42U C88A U92A G120A,-1.96
24,A41U C64U,-1.24

row,Variant,polymerase ribozyme fitness (log ratio)
1,G42A U87A C89U,-2.26
2,G42C G52U,-2.21
3,G42U G47U G120U,-1.57
4,G42A U55A C82G,-2.94
5,G42U C73A U106C,-1.97
6,G42A U55C A95C U109A,-6.59
7,G42U C72G C94U G120U U131A,-2.67
8,G42A U106C,-2.12
9,A41U C62G,-3.92
10,G42C G45U G48U U131G,-3.09
11,A41U C82G,-2.37
12,A41U G45U,-1.99
13,G42C G61A,-0.466
14,G42A G45U,-2.62
15,A41U C123U,-0.183
16,G42C C62G,-4.74
17,G42A U54G A103G U109A G117C,-6.58
18,G42U A84G,-3.57
19,A41U G77U C88G A111U,-6.76
20,G42C G57C A66C,-4.36
21,G42A G47A,-2.34
22,G42U G47U G60A U112A C114U G117C,-5.02
23,G42U G48A C104U,-0.902
24,A41U U87A,-1.14

row,Variant,polymerase ribozyme fitness (log ratio)
1,G42A G60U C82U U112G G127C,-3.6
2,G42C C56A G122A,-2.92
3,G42C C49U G63A G120A G128U,-5.69
4,A41U A90C C124G,0.559
5,A41U G42C C53A C85U,-4.01
6,G42U C56G C123U,-0.406
7,G42U C53U,-1.85
8,G42U C53G,-1.45
9,G42A C49G,-1.71
10,G42A G44U C73A,-1.69
11,G42C C101U,-1.45
12,G42C C56G C72G C88G C114A,-7.1
13,G42U G52U U96A C124G,-1.76
14,A41U C72G U125G U133G,-2.77
15,G42U C49U G61A,-1.64
16,G42A A74C G120C,-2.11
17,A41U G113U,-3.98
18,A41U G113C,-3.1
19,G42C G48U C70A G120U,-5.45
20,G42A G60U C114G U129C,-3.48
21,A41U C64U C94U U133G,-1.82
22,G42U C72U U125A,-1.92
23,G42C G120U,-1.69
24,A41U C104A,-3.22

row,Variant,polymerase ribozyme fitness (log ratio)
1,A41U C56A,-1.52
2,G42A G45U G57U C88U U130A,-3.68
3,G42A G69C C124U,-2.56
4,G42C A66U G120A,-2.6
5,A41U U54C A75G C88A U133A,-1.96
6,A41U C89U G113U G117U,-5.95
7,G42A U78C,-1.87
8,G42C C88U U106A A121C U125A,-1.81
9,A41U C72G G117C,-5.06
10,G42C C53U G93A,-3.13
11,G42C G44U G63U C123A G128C,-3.33
12,A41U G120U,-1.11
13,G42U A74G C85A,-1.78
14,G42C G60A G120U,-2.21
15,G42C C56G C88G C114A,-5.36
16,A41U C86G A95U,-3.96
17,G42A G61C C114U G117C,-5.25
18,A41U G61U,-0.703
19,A41U C124G,0.981
20,A41U A90G,-0.36
21,G42A G71A,-3.35
22,G42C G63A C88U,-3.63
23,G42A G45A A50G G113U U129A G135A,-3.94
24,A41U C49U G69A,-6.56

row,Variant,polymerase ribozyme fitness (log ratio)
1,G42U G45U C88G A90G,-1.09
2,A41U A90C C115G,-4.39
3,A41U G93C,-2.07
4,A41U U130C,-1.35
5,G42A C85G C86G U129C,-4.79
6,G42C A50C A105G,-5.66
7,G42A C124A,-0.186
8,G42C C49A G69U A90U U109G G128U,-6.14
9,G42C C53A C85U C114G C124U U133G,-3.5
10,G42U G51C,-6.75
11,G42C C94A,-2.23
12,G42A C80U,-2.64
13,A41U G45C C114A,-4.37
14,G42A C82A U87A G93C C124G,-1.42
15,A41U C82U G113C,-2.61
16,G42C G69U C70G,-1.55
17,G42U C79U A100U,-2.8
18,G42C C64U,-0.982
19,A41U G63A U78A A83U,-4.53
20,G42A C72A C104A U130C,-5.17
21,G42C C49U G128A,-5.33
22,G42A C73A C104U G128A,-3.49
23,G42A C85G G93A,-3.19
24,A41U C72G A90C,-2.3

row,Variant,polymerase ribozyme fitness (log ratio)
1,G42C A43G A84C C114A,-2
2,A41U C80A C104U,-6.34
3,A41U G44A,-2.2
4,G42A C53G,-2.5
5,G42A C53U,-2.41
6,G42C U55C G60A C124G U132A,0.349
7,G42A A74U A119G,-1.81
8,G42A C114U,-2.35
9,G42U C72U G93U A118G,-4.06
10,G42A G127U,-2.7
11,G42C C56G C72A G77C A100U U132A,-3.99
12,G42A C101U,-1.9
13,G42C C115U G120U U129G,-4.74
14,A41U U78C,-1.1
15,G42C G44U A74C C99A C123G,-6.31
16,G42A A121U,0.623
17,G42A G44A G47U,-3.4
18,G42C G61A A121C U133G,0.579
19,G42C C56U U81A C124G U132A,-0.851
20,G42U A43U G63C U78C,-3
21,A41U C76A U81A,-1.77
22,A41U G113A C114U C115A G122U,-5.49
23,G42C G110C,-6.03
24,G42C C72A,-1.16

row,Variant,polymerase ribozyme fitness (log ratio)
1,G42C C72G,-1.76
2,A41U C49A G52C C72U,-3.5
3,G42C C80U U92G,-3.41
4,G42A G117U,-3.37
5,G42A G77A,-2.61
6,A41U A83C G110A,-4
7,G42A C72U,-2.31
8,G42A C62U A84C,-3.09
9,A41U G63C A95C,-3.24
10,A41U G42A G52A,-3.18
11,A41U G110A,-2.6
12,G42C C88G,-3.51
13,A41U U54C C124U,1
14,G42U A50G G57C G61U C80A C82A G120A,-4.58
15,G42C A50U C82A,-2.49
16,G42A U54A C72G C86U G110A C124G,-4.88
17,G42U G52C C97G C115U,-6.37
18,G42C C49A U92C G117A G122A,-4.11
19,G42A G69A,-5.77
20,A41U G48C C70U,-3.25
21,G42U G48U,-3.89
22,G42A C56G C85G G93A G120C,-3.01
23,A41U C72A,-1.82
